Experimental data taken from patent US20180016614.

How the values were obtained:
[1] = tested on: His-tagged double mutant T7 RNA polymerase K183G, K190L expressed by C321.ΔA.759.T7.D
[2] = tested on: N-terminally 6-His-tagged T7 RNA polymerase (wild type) expressed by C321.ΔA.759.T7

Substance: Outer membrane protease VII (OmpT)
- proteolytic cleavage of double mutant T7RNAP in lysate (α-His western blot) [1]: the double mutant T7RNAP expressed by C321.ΔA.759.T7.D is not cleaved despite the presence of active OmpT in the cellular lysate
- proteolytic cleavage of T7RNAP during lysate preparation (α-His western blot) [2]: the T7RNAP produced by the strain is cleaved near the N-terminus to yield a ˜21 kDa fragment
- proteolytic cleavage of T7RNAP in lysate of the ompT knockout strain (α-His western blot) [2]: a Western blot revealed that in the absence of OmpT the T7RNAP is no longer cleaved
